Data reported in US20220204610A1, “PROTEIN BINDERS FOR IRHOM2” (NEW YORK SOCIETY FOR THE RELIEF OF THE RUPTURED AND …, priority 2019, published 2022).

Test system: LPS-induced release of endogenous TNFα from human THP-1 macrophage cells
Experiment: ELISA-based TNFα release assay with purified antibody (Example 11)
Type: cell-based
Details: antibody at 10 μg/ml final; LPS 50 ng/ml, 2 hours
Description: In the following study, ELISA-based TNFα release assays were performed to verify the inhibitory effects of the purified antibody 4H8-E3 of the invention on LPS-induced release of endogenous TNFα from human THP-1 macrophage cells.
In brief, on day 1, Nunc black MaxiSorp® 96-well plates (Thermo Fisher Scientific, USA) were coated overnight with 100 μl per well of mouse anti-human TNFα capture antibody (provided as part of the DuoSet ELISA kit) at 4 μg/ml TBS at 4° C. On day 2, the capture antibody solution was removed and MaxiSorp® plates were blocked with 300 μl per well of TBS, 1% BSA at room temperature for 3 hours. […] Using an infinite M1000 PRO (Tecan Group, Switzerland) microplate reader, the fluorescence of each well was collected at an excitation wavelength of 435 nm and an emission wavelength of 555 nm.

B1: 4H8-E3: Mouse IgM monoclonal antibody against the human iRhom2 juxtamembrane domain adjacent to TMD1; HC VD SEQ ID NO 33, LC VD SEQ ID NO 40 (antibody, V domains shown)
VH: EVQLQQSGPELVKPGASVKISCKASGYTFTDYYMNWVKQSHGKSLEWIGDINPNNGGTSYNQKFKGKATLTVDKSSNTAYMEFRSLTSEDSAVYYCARRGYYGVDYWGQGTTLTVSS
VL: NIVMTQSPKSMSMSVGERVTLNCKASENVGTYVSWYQQKPEQSPKLLIFGASNRYTGVPDRFIGSGFATDFTLTISSVQAEDLADYHCGQSYSYPYTFGGGTKLEIK
modifications: IgM constant regions; antibody sequence
In the case of B1, the “inhibition of LPS-induced release of TNFα from THP-1 cells” value is reported as 62.6%.
